Data as given in the DeepSol protein solubility set.

test: soluble on expression in E. coli; label from the status in PepcDB or PDB records

Row | Sequence | soluble on expression in E. coli
1 | MFSRRTTPSPSITTASSSTFSISNLTNNNATSTSDLPASAISNIVPQIPPTPRRVPPKIGLLRHLSGFLESKKDLMNDWEIGGTQNKWVCPSDRHLHLRAQLKSGWSVRTATARSPTNSKAQTGSITAAEQEHIQKVLAKAEESKSKEQQRIGKMVDRLEKMRRRATGNGVTHCLLCHTEFGLLASKSYAAMCVDCRKYVCQRNCGVETTDVNQTTGKVETVFLCKICSEAREVLWKKSGAWFYKEMPEFQRPDDRLPYYVPVTTNGTLPNASSAATPLSGTPGGAGPQPMTMPSTSSCQMTTPKWASPGVCNSPGLQMNGGPTSPLPNGTRRNTGHGGIEFPSSSRPSICSVLQAIEPLDRSKSPRPRIQPRWVNEKVMSSMSVDDEEKAASSSDGESFVQSGVPRRALNNKTPVGSTSATTSPAPPPTSTTPTSRREANMERFSRHTHAHANRLYSTDDDDDSSPESRPSTRSTSPRHSLATPSSYAHDTCHDTSLPDADTRSIDSGVVQSDHSNPQQSGLTCSSSSLTPLQQQASHDHHSGGGTPRRISNPDRTTSRVAQSASGTSLVTPPPPISSRTSPDNCNSSPLNVMEHKSSSASTASSGGNRRVGSAEPVLNNHHAMHNNQNHNDINKKLISQTSRAESPLAASSSFLSSPDDDTKQKNRRRDGVGRVNSLQLRTSLDDVAPPVAPISKMNGHIVSSEPTSSTTSNQNHTSVPIPTVPVVPEEEEEKAITASTESASEPGSLGSITLTLTYHSADKKLKMHLIRAKNLKAMDSNGFSDPYVKFHLLPGNTKATKLTSKTIEKTLNPEWNEEMSYYGITEDDKEKKILRVTVLDRDRIGSDFLGETRIALKKLNDNEMKKFNLYLESALPVPQQTKEEENEDRGKINVGLQYNIQQGSLFININRCVELVGMDSTGFSDPYCKVSLTPITSKAHRAKTSTKKRTLNPEWNEQLQFVVPFKDLPKKTLQIGVYDHDLGKHDDYIGGILLSTSAKDERGRQWIKCIENPGTLVEAWHRLELDS | not soluble
2 | MFSVYAHRVAAVKDEENGAVKKVTDSVENYNSENRFERTIIVANDNKTAILLILRLKQDGVKTSVFTNYLADDEIVLGEQKKAFVEGAHKVAVCTTQMFEKMEFDVVKHYIFVDAPAEEKLRDQLRQKAVCEGKKIRVDLVMSESYEVSVKVEEKPAEASKPSPKRKCSFDIYSIKPNKQGKFVIPAEYMGFDESAEDDEYDSEYDDDDYNPFKWLGF | not soluble
3 | MFTGLHDILIILFLLVTLKIAQNVDHTKFLQKYGYLTSGDNQLSSESLSDALKNMQRMAGLEETGELDERTIQMMERPRCGHPDVEDHQKSRGKRYAPPQFKWKEKIITYGCKAVGTSTRISLDDLRRTMHQAASQWSELADVEIVESSVKNPMMVISAGRENHYPCTVRFDTKTLAHAFFPTNGQIHINDRVQFAMTNYTERMGANSLYSVVAHEMGHALGFSHSPDIDSVMFAYDTPRKWKFTSMDKYNMRSYYGAKASKKENEEEERKTENEDKRRKTEKDRGRTREHESDDIRPNECRVENPIVVQYRGEYLIFKSQWVWRVSSDWKRLIIKAVPINQLFPGLPNPIDAAVTVGHNLWVFVGEMIYVIYGNHMVHAPLRLSDIGINEKYVDLAYEWHYFNPPAVYIWKGSRYWKLDEKMYHRRVDERYPKDTDLNWARVPKGVHSAFTYEKEIHLLRGNQVFRMNSSRSVFDIADGYPQPLQSFFGFCPRNEKLVLNSSSSHFSLIYATITILILIF | not soluble
4 | MFTLRELPFAKDSMGDFLSPVAFDFHHGKHHQTYVNNLNNLIKGTDFEKSSLFAILTKSSGGVFNNAAQIYNHDFYWDCLSPKATALSDELKGALEKDFGSLEKFKEDFIKSATTLFGSGWNWAAYNLDTQKIEIIQTSNAQTPVTDKKVPLLVVDVWEHAYYIDHKNARPVYLEKFYGHINWHFVSQCYEWAKKEGLGSVDYYINELVHKKL | soluble
5 | MFVMIIQGQVLGGYPRSRYVRRALRRLEQGEISAVELMGVLNQASSAVIGAQVSQGFPYVVDGMLDWHDIFRPFAEAWRNVTPTGLLRYFDNNFFYRIPLFTGEPEPTDPVLAPRVLSYSQVAEPAKLKVVVPGPVTFTLMSRNESGISDEELAEAIANLLADEVEKAVKAGAGFVQVDEPILSEPKATRDHALLAAELAGVIASRSGSAETMLSVYFYPPKPEVYEALLEARVDYLMVDLVAAGSKGLEVITGKGAGEGLALGVIDARSIYSESLEKVEAPVRRIVESVKPEKIILTTSTWLDLIPYRYALRKTALLGRYTYALAEKLGAQIAVAGGEMAGDPLEHHHHHH | not soluble
6 | MFVRFASAQSVPPGDIQTQPGTKIVFNAPYDDKHTYHIKVINSSARRIGYGIKTTNIKRLGVDPPCGVLDPKEAVLLAVSCDAFAFGQEDTNNDRITVEWTNTPDGAAKQFRREWFQGDGMVRRKNLPIEYNP | soluble
7 | MGAAAAMLAAVLLLTPITVPAGYPGAVAPATAACPDAEVVFARGRFEPPGIGTVGNAFVSALRSKVNKNVGVYAVKYPADNQIDVGANDMSAHIQSMANSCPNTRLVPGGYSLGAAVTDVVLAVPTQMWGFTNPLPPGSDEHIAAVALFGNGSQWVGPITNFSPAYNDRTIELCHGDDPVCHPADPNTWEANWPQHLAGAYVSSGMVNQAADFVAGKLQ | not soluble
8 | MGAIQFQTAPKLPVTVLLAAKNEAVNLPRCLAALGPAERVIVLDSHSTDATAEIARQHGAEVAQFDYRGGYPKKRQWALDTIPFGTPWILLLDADEVVPEDLWKEIGNVTRQPDADAYLITKGFHFLGRKFKHGGFSHSAVLLFKTGMARFEKLFDDDLNGLDMEIHERVVVDGRIGKLKTPLVHEDFKGLEAYITRHNKYSTWEAKVRHHYLTTGRYGEQTIKPRLFGNSQERRRFLKALIIRLPFEPQIWFIYHYLLRLGFLEGRPGLIASQIRAAYIAQARAKIYELRLNTPSRLEHHHHHH | not soluble
9 | MGCGLRKLEDPDESSPGKIFSTLKRPQVETKTEFAYEYALLDFTLQASTNPDVIKINSVLDIVAKVEDYYLKGYVVGAIHPVIQPVGQRKHLPASHLYRAVLSRLKLSPKHSAAGGQRRARLVMEECPLTCEAQANDAAKELMDKINAAAKRGMKFVGLVSQCYLPSMHCNGASHDGVAESGLHVRQDSQDNCKGWNEGALGGHLSESGVEEEPQHESGQHQTERNSSPSYANPKRGEAPDGKLYMVFNAFEEDAASWAYQEGVLSMKVTRKGAVISALDANWLELTTFYYKQGFSLIDSFVCWETPKVAKLEAFQLSVSDKLPKGKQKYSFQSLSGIPASGLA | soluble
10 | MGDGVLELVVRGMTCASCVHKIESSLTKHRGILYCSVALATNKAHIKYDPEIIGPRDIIHTIESLGFEASLVKIE | soluble
11 | MGDIHFIGSAANFFRSSTSDDWVRFHTFAEETLKGSQSLIALQWLVKVEPPQAETFTARMQQRFPEFTLYTVPKTGEIKYGFGTDDQAKYVLSDIYPLNYDNRKLLGFYSERERFKRILADIVVNRRPNVSDKVRLLQDGIDKSIVKDGMLVYHPVFSSEDDRSLLGVMVGVVRLSTYFEKLVQISVMEQDLDMRVIDTGFDSEDSPVLYQSPMWRADDEPKIERKLVLPNRDWVLEFELHQPINHSEELEHHHHHH | not soluble
12 | MGDTKVETISRLAQWRIENFGPCSFKKSDPFKVGIWNWHLSIERNRYLSVRLFPELSRVSKEQPPVAKFVLRVSNVGPNRRFYISPVYEKLLRTTDDCVWHVDSSFHGRFTIDVEFLDLKICPVNGGEASPVWPTDATMQSISTQTTLKCLSRMLEESILTDVIIHTADGTLSAHKAILSASSTVFKSMFHHDLMEKESSTIHIDDMSRESCMALLSYLYGNITQEEFWKHRLALLGAANKYDITDLKAACEESLMEDINSSNVLERLQEAWLYQLEKLKKGCLMYLFDFGKIYDVREEISSFFRQADRELMLEMFQEVLSVWKPV | soluble
13 | MGEFIGNEEFQNFMKATGFIQEFTRRLLERSSKNIIKIPDNLSNVNQLTCLVKQFLREQQDLAVKVEKVQENQKNLSDFVKEKLTNCNCHVQLDVRNLLAKEMKLQDLRQDDGLDFSIKLPSTSSTDFTVSLNQVVDADAQQRFDLELLKMFGAGNIPHFQPPPDLYQHHHIPHTSQQVAQENLAMLANVPKLDDNNAYFDTFSPEKSGKRAKKRAAPSSAHEAQPNNGPYKCRDCEKTFRQKHGLNQHLLTHETNGAFECDGCGKRYSRQESVYRHQRSTPCTKYQNLTTVEHDDTGALF | not soluble
14 | MGELFLVGMGPGDLPGLTQRAREALEGAEVVIGYSTYVKLLEEMGLLAGKEVVRKGMTEELDRAEEALERALSGQRVALVSGGDPGIYGMAAPVLELMEERGLKRVDGGVGLPGRFAGEEGEVFLAVIPGVTAANAVASLLESPLAHDTCLISLSDLLTPWPLIERRLHAAGQGDFVVVLYNPQSKRRDWQLRKSAEILLEYRPKETPAALVKSAYRKRQEVALTTLEGLREAEAGMLTTVVIGNRQSRFYEGTFLTPRGYALKYDLDTKEALPGETPGLSLVSPEGASSGRRDA | soluble
15 | MGERIIPKNMKPMNGMLLEHLARYYFSTPYASGRVLDIACGTGYGSVMVAKTRKTEVDQVLGVDFDADVIHYAKQNYYHPKVSFLVGDAMDPYLRNQIGTFDTILSFETIEHVKDDRLFIERMRQLLKKDGTLVLSTPFGQGRGKPSDEPFHYHQLTEEEFRSLFDSFSEKEVFYQRGVTIEPKRTNVHYAFGVAVCKLEHHHHHH | not soluble
16 | MGESHAPSKPKLDGELCLRPSSSVFLGDQQLYFTQEYLRTNSLNLKYVVYFTACQFSGPIAVAYSPRPASWYIWIRTISGRILKRDMAFNEPVFMEWTRAHCLLVLNKAGRAHIFSSLGEKISEVIFDSQMSDVHECRTFATSRGDSGIAVMDVDGQVSVVNSVSEPVIWSMKPPYSEMPTAWTAFQPHSQLTHILLIFEAVFLMGCQGESLREQSHAASWVDSNTKYVKCVVDDARSRIAMMTESGKIQIVSIDLSTCFCTVEITDHDIAKCINFGWVGNSAVFVQMSPSLIVFVNVSARRKPGDEVQIYEKMTANAKISIEPDGIRLFESTQVEFVEAASREKIAVLNRNPNEDGAHLYKAAQEMSQGTGHNSFAASTVIQDLYKAIDDCISTACDTWQPEEQKLLLKAARFGMAYTNTTPDTTKLMRAIKEIRVLNELRMVRTGIPLTHRQFRAIGETCVINRLIDMGSYSVAIKVAQWLGGETSENVDRVLLEWVRRSISKVSKSNMKMDQPALEALDEKISAKLLQFPHVSIADAARRAIEAKLPELARLFIRRETDDANHVAVLLQLNDVSAALQKASASQRPQLIHQVVRHLMNSESRSSYELAISRIPLAQCLYQDLVRQEGETRGASSRQMLALLEQASDFERQTLFHFDVAETERNPDERLNALRRAKDAAKSMGDKAIEEILNDVSAFAPLQIQRGQADMSVRDTVIEMAHDTAKVAQLKQQARLTDKQVLLWTIEGLAKKGKMEQLFDLAQKRSPIGYAPFVKACVRYKRLDEIKKYFAKVNGYPDLVAAHLAMKNYVEAAKLAYDRRDRDVLHAVHMKSHEDPTQCPRVGQFLRSLDQN | not soluble
17 | MGESLDRCIDDINRAVDSMSTLYFKPPGIFHNAILQGASNKASIRKDITRLIKDCNHDEAYLLFKVNPEKQSVSRRDGKEGVFDYVIKRDTDMKRNRRLGRPGEKPIIHVPKEVYLNKDRLDLNNKRRRTATTSGGGLNGFIFDTDLIGSSVISNSSSGTFKALSAVFKDDPQIQRLLYALENGSVLMEEESNNQRRKTIFVEDFPTDLILKVMAEVTDLWPLTEFKQDYDQLYHNYEQLSSKLRFIKKEVLLQDDRLKTMSQYHPSSSHDVAKIIRKEKDEIRRLEMEIANLQE | not soluble
18 | MGFGDLKSPAGLQVLNDYLADKSYIEGYVPSQADVAVFEAVSSPPPADLCHALRWYNHIKSYEKEKASLPGVKKALGKYGPADVEDTTGSGATDSKDDDDIDLFGSDDEEESEEAKRLREERLAQYESKKAKKPALVAKSSILLDVKPWDDETDMAKLEECVRSIQADGLVWGSSKLVPVGYGIKKLQIQCVVEDDKVGTDMLEEQITAFEDYVQSMDVAAFNKI | soluble
